This is an account of results in patent US20090178146.

Data set [1] deals with GST-fused SP-3 peptide of NFAT1 (amino acids 264-295) with Ser>Ala substitutions in the serines phosphorylated in cells.
Data set [2] has as its system GST-fused peptide corresponding to the SP-3 motif (amino acids 264-295) of NFAT1, wild type.

Consider “recombinant DYRK1A protein kinase (Upstate Biotechnology), bacterially expressed”, for which the “in vitro kinase assay with recombinant kinase, phosphorylation of GST-peptide” value in data set [1] is “neither kinase phosphorylated an SP-3 peptide with Ser>Ala substitutions in the specific serine residues known to be phosphorylated in cells”; in data set [2], “DYRK2 and DYRK1A both displayed strong and selective kinase activity towards the SP-3 motif of NFAT1”.
